Results on 1 sequence are retold here after patent publication US6387681.

The test system of the series is NheI restriction endonuclease (R.NheI) (Neisseria mucosa heidelbergensis). The experiment in a line: cleavage_in_vitro. The note with it: cell extract of clones #1 and #9; AvaI-linearized pBR322 cleaved into 1196 and 3165 bp fragments.

As to “GCTAGC (double strand) [NheI site in AvaI-linearized pBR322]”, the activity (units per gram wet cells) amounted to 1e+07.
